Laboratory results published in paper PMC10415143.

Assays:
[1] = molecular target: Full length ALPH1 (amino acid 1-734), recombinant (T. brucei); experiment: SEC-MALS; 100 µl injected at 5 mg/ml on Superdex 200 Increase 10/300 GL, 15°C, 0.4 ml/min, PBS buffer
[2] = molecular target: ALPH1ΔN (amino acids 222-734), recombinant (T. brucei); experiment: as above

Substance | stoichiometry N [1] | stoichiometry N [2]
Full length ALPH1 (amino acid 1-734), recombinant (enzyme) | 2 | –
ALPH1ΔN (amino acids 222-734), recombinant (domain or fragment) | – | 2
